# Test results from US20010039258A1, “Active agent transport systems” (Emisphere Technologies, Inc., priority 1990, published 2001).
# Key:
# [1] = DSC of α-interferon, pH dependence; assay type: physicochemical
# Method: (§1) Scanning calorimetry was performed using 5 mg 0.83 mM porcine insulin (MW 6,000) per mL in 50 mM phosphate buffer, pH 7.5. All thermograms were performed on a Microcal MC-2 scanning calorimeter equipped with the DA2 data acquisition system operated in the upscale mode at 1° C./min (up to 90° C.), and data points were collected at 20 second intervals. All scans were initiated at least 20 degrees below the observed transitions for the active agent. All thermograms were corrected for baseline subtraction and normalized for the concentration of macromolecule. According to the methods of the Johns Hopkins Biocalorimetry Center, See, for example, Ramsay et al. Biochemistry (1990) 29:8677-8693; Schon et al. Biochemistry (1989) 28:5019-5024 (1990) 29: 781-788.
# α-interferon stock (9.1 mg/mL) was diluted with buffer to a concentration of 0.6 mg/mL. The sample was dialyzed overnight in buffer (volume ratio of α-interferon to buffer was 1:4000). Since there was no extinction coefficient provided, concentration of the sample used was determined by comparison of absorption spectra of the sample before and after dialysis. For each particular pH, the absorbance of the nondialyzed α-interferon of known concentration was measured at 280 nm. Then after dialysis, absorbance was read again to account for the protein loss, dilution, etc. Buffer conditions and α-interferon concentrations were:
# pH 3.0: Buffer—20 mM NaAc. [IFN]=0.50 mg/mL;
# pH 4.1: Buffer—20 mM NaAc. [IFN]=0.53 mg/mL;
# pH 5.0: Buffer—20 mM NaAc. [IFN]=0.37 mg/mL;
# pH 6.0: Buffer—20 mM Na Phosphate. [IFN]=0.37 mg/mL;
# pH 7.2: Buffer—20 mM Na Phosphate. [IFN]=0.48 mg/mL.
# DSC scans were performed according to the procedure of Example 9. Although clear, transparent solutions of α-interferon were obtained for every pH at room temperature, there were noticeable signs of precipitation at pH 5.0 and 6.0 after the temperature scans.
# α-interferon [2] = target: T1, α-interferon (Homo sapiens, UniProt P01563); experiment: Perturbant binding DSC with α-interferon; details: perturbant 0 mg/ml; α-interferon 0.64 mg/ml; pH 7.2
# T1 construct: purchased Schering Plough Corp
# Method: (§2) Perturbant binding DSC was conducted using 20 mM NaPhosphate buffer at pH 7.2. Dry perturbant was weighed out to make perturbant stock solutions. α-interferon stock was diluted in the buffer. α-interferon solution was not dialyzed prior to experiments for the purpose of having the same active concentration for the whole set.
# DSC thermograms were generated with α-interferon at a concentration of 0.64 mg/ml and a perturbant (phenylsulfonyl-para-aminobenzoic acid purified to >98% (as determined by reverse phase chromatography prior to generation of the spectra)) at perturbant concentrations of 5, 10, 25 and 100 mg/ml. DSC was conducted on a DASM-4 differential scanning calorimeter interfaced to an IBM PC for automatic collection of the data. The scanning rate was 60° C./h.
# The method of Example 19 was followed substituting α-interferon without perturbant. Results are illustrated in Table 9 below and FIG. 10. […]
# [3] = DSC of α-interferon in GuHCl; assay type: physicochemical
# Method: GuHCl 5M stock solution was prepared using 20 mM sodium phosphate, pH 7.2 buffer. After dilution, the pH of the stock was checked and adjusted by concentrated HCl. To determine the concentration of final solution the refractive index referenced in Methods in Enzymology, Vol. 6, page 43 by Yasuhiko Nozaki was used.
# α-interferon stock (9.1 mg/mL) was mixed with sufficient amounts of GuHCl to yield the concentrations of Table 1A below:
# as §1
# GuHCL/α-interferon samples were prepared according to the method of Example 4. DSC scans were performed according to the procedure of Example 9.
# [4] = target: salmon calcitonin (salmon) (UniProt P01263); experiment: ITC, 30 C, pH 4.5 (30 mM sodium acetate-30 mM NaCl); perturbant in syringe, sCt in cell
# [5] = target: salmon calcitonin (salmon) (UniProt P01263); experiment: ITC, 30 C, pH 4.5; perturbant in syringe, sCt in cell
# [6] = target: salmon calcitonin (salmon) (UniProt P01263); experiment: ITC, 30 C, pH 6.6 (text: pH 6.5); perturbant in syringe, sCt in cell
# [7] = target: salmon calcitonin (salmon) (UniProt P01263); experiment: ITC, 30 C, pH 6.6 (text: pH 6.5, 30 mM Hepes-30 mM NaCl); perturbant in syringe, sCt in cell
# [8] = DSC of insulin, effect of ionic strength; assay type: physicochemical; details: pH 7.5
# Method: as §1
# A sample containing 6 mg/mL insulin (0.83 mM in 50 mM phosphate buffer, pH 7.5, containing 0.25, 0.5, or 1.0M NaCl) was used. Thermograms were performed according to the procedure in Example 9 and were corrected by subtraction of a 0.5M NaCl-phosphate buffer blank as described above.
# The effect of increasing ionic strength on structure was assessed in DSC experiments where individual solutions were prepared so as to contain NaCl at concentrations ranging from 0.25-3M.
# [9] = DSC of insulin with increasing guanidine hydrochloride; assay type: physicochemical
# Method: DSC was performed with […] insulin (0.83 mM assuming a molecular weight of 6,000) in 50 mM phosphate buffer, pH 7.5. Each subsequent thermogram was corrected by background subtraction of a 0.6M guanidine-phosphate buffer solution.
# Insulin was freshly prepared as a concentrated stock solution in 50 mM phosphate buffer, pH 7.5, and an appropriate aliquot was diluted in buffer, filtered though a 2 micron PTFE filter, and degassed for at least 20 minutes. The reference cell contained degassed buffer.
# as §1, with “781-788. […]” for “781-788.”
# α-interferon [10] = target: T1, α-interferon; experiment: Isothermal titration calorimetry of perturbant complexing with α-interferon; assay type: binding; details: pH 7; read-out: apparent dissociation constant
# [11] = Solubility of perturbant under the DSC buffer conditions; assay type: physicochemical; details: room temperature; buffer conditions of the DSC (20 mM NaPhosphate pH 7.2)
# Method: as §2
# DSC experiments were carried out according to the procedure of Example 19, with 0.5 mg/ml α-interferon mixed with (1) benzoyl para-amino phenylbutyric acid, (2) the perturbant of Example 22, or (3) the perturbant of Example 19.
# Benzoyl para-amino phenylbutyric acid was poorly soluble under the buffer conditions. Maximum concentration at which the solution was still transparent at room temperature was ˜8 mg/mL. Therefore, the concentrations of the perturbant used were 2, 4, and 6 mg/mL. Results are illustrate in FIGS. 17 and 18. The dashed line in FIG. 17 represents the linear least squares, and the regression equation is at the top of FIG. 17.
# α-interferon [12] = target: T1, α-interferon; experiment: Isothermal titration calorimetry of perturbant complexing with α-interferon; assay type: binding; details: pH 7.2, 25° C.
# Method: Isothermal titration calorimetry of perturbant complexing with α-interferon was performed at 25° C. at two different pH's. The buffers used were 20 mM NaPhosphate for pH 7.2 and 20 mM NaAc for pH 3.0. α-interferon solution was dialyzed before the experiment to reach the appropriate pH. Dry perturbants were weighed and diluted in dialysate.
# ITC was conducted on a MicroCal OMEGA titration calorimeter (MicroCal Inc.—Northampton, Mass.). Data points were collected every 2 seconds, without subsequent filtering. α-interferon solution placed in 1.3625 mL cell was titrated using a 250 μL syringe filled with concentrated perturbant solution. A certain amount of titrant was injected every 3-5 minutes for up to 55 injections.
# A reference experiment to correct for the heat of mixing of two solutions, was performed identically except that the reaction cell was filled with buffer without active agent.
# Analysis of the data was performed using the software developed at the Johns Hopkins University Biocalorimetry Center.
# The titration at pH 7.2 included 53 injections of 2 μL of the perturbant of Example 30 (50 mg/mL=191.6 mM (MW 261)) and α-interferon (1.3 mg/mL=0.067 mM (MW 19400)).
# The titration at pH 7.2 included two runs of […] each of 5 μL of perturbant (50 mg/mL=181 mM (FW 277)) and α-interferon (2.31 mg/mL=0.119 mM, (MW 19400)).
# ITC was performed according to the method of Example 24 with 40 injections of 5 μL of the perturbant benzoyl para-amino phenylbutyric acid (7.5 mg/mL=24.59 mM, (FW 305)) and α-interferon (2.5 mg/mL=0.129 mM, (MW 19400)).
# Chain of salmon calcitonin (salmon) (P01263 83-114 limits assumed): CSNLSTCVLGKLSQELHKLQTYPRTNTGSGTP
# T1 sequence (P01563 24-188): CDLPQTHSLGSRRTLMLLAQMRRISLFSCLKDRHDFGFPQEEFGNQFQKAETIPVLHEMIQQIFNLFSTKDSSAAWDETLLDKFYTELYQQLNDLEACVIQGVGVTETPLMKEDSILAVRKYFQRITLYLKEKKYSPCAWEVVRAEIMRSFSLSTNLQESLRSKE
molecule,measurement,setting,value
α-Interferon,Tm,[1]; pH 4.1,65.64 °C
same,ΔH,[1]; pH 4.1,60.47 kcal/mol
same,Tm,[1]; pH 5.0,67.32 °C
same,ΔH,[1]; pH 5.0,69.782 kcal/mol
same,Tm,[1]; pH 6.0,65.34 °C
same,ΔH,[1]; pH 6.0,45.58 kcal/mol
same,Tm,[1]; pH 7.2,66.84 °C
same,ΔH,[1]; pH 7.2,732.717 kcal/mol
same,Tm of α-interferon,α-interferon [2],67.12 °C
same,ΔH of α-interferon,α-interferon [2],72.562 kcal/mol
same,Tm,[3]; [GuHCl] 0.0 M,67.12 °C
same,ΔH,[3]; [GuHCl] 0.0 M,72.562 kcal/mol
same,Tm,[3]; [GuHCl] 0.5 M,64.43 °C
same,ΔH,[3]; [GuHCl] 0.5 M,50.827 kcal/mol
same,Tm,[3]; [GuHCl] 1.0 M,63.04 °C
same,ΔH,[3]; [GuHCl] 1.0 M,41.705 kcal/mol
same,Tm,[3]; [GuHCl] 1.5 M,60.11 °C
same,ΔH,[3]; [GuHCl] 1.5 M,29.52 kcal/mol
same,Tm,[3]; [GuHCl] 2.0 M,56.32 °C
same,ΔH,[3]; [GuHCl] 2.0 M,24.98 kcal/mol
same,Tm,[3]; [GuHCl] 3.0 M,45.90 °C
same,ΔH,[3]; [GuHCl] 3.0 M,20.577 kcal/mol
"thermal condensation product of glutamic acid, aspartic acid, tyrosine, and phenyl-alanine (Glu-Asp-Tye-Phe) fractionated through a 3000 molecular weight cut-off filter",Kd,[4],129 µM
same,N,[5],0.8
same,delta H,[5],0.553 kcal/mol
same,delta S,[5],19.8 cal/mol ° K
same,N,[6],11.6
same,delta H,[6],0.277 kcal/mol
same,delta S,[6],38.3 cal/mol ° K
same,Kd,[7],0.00699 µM
"Insulin: porcine insulin (MW 6,000)","Tm (Cp, max)",[8]; 0.0 M NaCl,78.3 °C
same,"Tm (Cp, max)",[8]; 0.25 M NaCl,80.7 °C
same,"Tm (Cp, max)",[8]; 0.5 M NaCl,80.7 °C
same,"Tm (Cp, max)",[8]; 1.0 M NaCl,80.7 °C
same,"Tm (Cp, max)","[9]; 0.0 M GuHCl, 50 mM phosphate pH 7.5",78.3 °C
same,"Tm (Cp, max)","[9]; 0.5 M GuHCl, pH 7.5",79.3 °C
same,"Tm (Cp, max)","[9]; 1.0 M GuHCl, pH 7.5",77.5 °C
same,"Tm (Cp, max)","[9]; 2.0 M GuHCl, pH 7.5",69.7 °C
same,"Tm (Cp, max)","[9]; 3.0 M GuHCl, pH 7.5",no transition observed
O=C(O)CCCc1ccc(NC(=O)c2ccccc2)cc1 [benzoyl para-amino phenylbutyric acid],Kd,α-interferon [10],100 µM
same,Maximum concentration at which the solution was still transparent,[11],≥ 8 mg/mL
same,"log 10 Ka (1), Ka=association constant",α-interferon [12],3.343
same,ΔH (1),α-interferon [12],791.5726 cal/Mole perturbant
same,"n (1), # of complexed perturbant molecules","α-interferon [12]; curve fitting, multiple independent sites",23.7
